These results are taken from the RNAGym collection of RNA variant scans (doi:10.7554/elife.80360).

B1: HDV Ribozyme (parent)
chain: GGCCGGCAUGGUCCCAGCCUCCUCGCUGGCGCCGGCUGGGCAACAUUCCGAGGGGACCGUCCCCUCGGUAAUGGCGAAUGGGACCCA

In this data set the parent is B1. As to the kind of experiment: self-cleavage, relative activity (ratio to wild type); higher = more cleavage; co-transcriptional.
Turning to C15U G40U, the self-cleavage came out at 0.791. Regarding C15U G40A, the self-cleavage was 0.972.

As for C15U C44G, the self-cleavage stood at 0.214. In the case of C15U C44A, the self-cleavage was 0.684. The same measure for A16C U79G: 0.692; for C15U G80A: 0.992.

As for C15U G80U, the self-cleavage was found to be 0.526. Regarding A16C U65A, the self-cleavage stood at 0.65.

With A16C U65G, the self-cleavage was 0.755.

On to C15G U60C, for which the self-cleavage came out at 0.7. With C15G U60A, the self-cleavage turned out to be 0.185.

Turning to C15U C33G, the self-cleavage was found to be 0.166. For C15U C33A, the self-cleavage came out at 0.178. For C15U C48A the value was 1.17; for C15U C48U, 0.852; for C15U C48G, 1.13. Consider A16C A83C, for which the self-cleavage is 0.227. For A16C A83U, the self-cleavage turned out to be 0.633.

Turning to A16C C33U, the self-cleavage was found to be 0.688.

Take A16C C33A: the self-cleavage came out at 0.208.

As to A16C C33G, the self-cleavage turned out to be 0.227.

As for C15G U46C, the self-cleavage came out at 0.256. Consider C15G U46G, for which the self-cleavage worked out at 0.755. Regarding C15G G81A, the self-cleavage worked out at 0.297. The same measure for C15G G81C: 0.375. Turning to C15G G28A, the self-cleavage worked out at 0.0627.

Take C15U C63A: the self-cleavage is 1.03. Consider C15U C63G, for which the self-cleavage was 0.776. On to C15U G29C, for which the self-cleavage is 0.0449. Turning to A16C G73A, the self-cleavage amounted to 0.504. In the case of A16C G73U, the self-cleavage was found to be 0.128. Consider A16C G73C, for which the self-cleavage is 0.217. For the variant C15U G50U, the self-cleavage was found to be 0.991. For C15U G50C the value was 0.831. Consider A16C U47C, for which the self-cleavage is 0.95. Take A16C U47G: the self-cleavage is 0.185. As to C15U G82C, the self-cleavage stood at 0.166.

C15U G82U: the self-cleavage turned out to be 0.231.

C15U C22A: the self-cleavage was found to be 0.113.

As for C15U C22U, the self-cleavage worked out at 0.35.

For the variant C15G G74C, the self-cleavage stood at 0.119.

For A16C G59U, the self-cleavage was 0.808. In the case of A16C A70U, the self-cleavage amounted to 0.415. As to C15G U65G, the self-cleavage turned out to be 0.886. Consider C15G U65A, for which the self-cleavage was determined as 0.831. In the case of C15G U65C, the self-cleavage was found to be 0.332.

As for C15G U47C, the self-cleavage was 0.128. Regarding C15G U47G, the self-cleavage was 0.665. The same measure for C15G G25U: 0.0354; for C15G G25C: 0; for C15G G67A: 0.731. Turning to C15G G67C, the self-cleavage amounted to 0.415. The same measure for C15G G67U: 0.475; for A16C C66A: 0.718; for A16C C66U: 0.982. Consider A16C G31U, for which the self-cleavage amounted to 0.

C15U A51C: the self-cleavage was 1.17. Turning to C15U A51G, the self-cleavage stood at 1.07. As to C15G U23G, the self-cleavage was 0.415. For C15G C48A, the self-cleavage is 0.623. Take C15G C48U: the self-cleavage stood at 0.237. On to A16C G28C, for which the self-cleavage was 0.119.

As to A16C G28A, the self-cleavage worked out at 0.0449.

As for A16C C62A, the self-cleavage was determined as 0.917. For A16C C62U the value was 0.804.

Consider C15U G25C, for which the self-cleavage was found to be 0.0723. As for C15U G25U, the self-cleavage amounted to 0.0875. In the case of C15G G82C, the self-cleavage was 0.111.

In the case of A16G, the self-cleavage stood at 1.07. Turning to A16C, the self-cleavage was 0.838. Regarding C15G G34A, the self-cleavage turned out to be 0.237. The same measure for C15U C86A: 1.1.

Regarding C15U C86U, the self-cleavage was 0.895. Regarding C15U C86G, the self-cleavage amounted to 0.91.

As to A16C C63U, the self-cleavage is 0.895.

On to C15U C18G, for which the self-cleavage amounted to 0.0594. The same measure for C15U A56U: 0.91; for C15U A56C: 1.02. For A16C G76C the value was 0.731; for A16C G76A, 1.08. As to A16C G76U, the self-cleavage is 0.88. Turning to A16C C36G, the self-cleavage worked out at 0.

On to A16C C36U, for which the self-cleavage turned out to be 0.578. As to A16C C36A, the self-cleavage turned out to be 0.135. The same measure for C15G C22U: 0.222; for A16C G50A: 0.525; for C15G C36G: 0. As for C15G C36A, the self-cleavage turned out to be 0.306.

In the case of C15U A70G, the self-cleavage came out at 1.07. With C15U A70C, the self-cleavage came out at 0.776.

Take A16C C30U: the self-cleavage was 0.449. For C15G G55C, the self-cleavage came to 0.582. As for A16C G54U, the self-cleavage is 0.789. The same measure for A16C G54C: 0.87; for A16C G54A: 0.866. Take A16C G34C: the self-cleavage is 0.104. Take C15U C30U: the self-cleavage is 0.554.

As to C15U C30A, the self-cleavage was 0.567. For the variant C15G A87G, the self-cleavage amounted to 0.543. As for C15G C63A, the self-cleavage is 0.684. As for A16C G40A, the self-cleavage came out at 0.65.

On to A16C G40U, for which the self-cleavage worked out at 0.73. As to A16C U27A, the self-cleavage worked out at 0.684. The same measure for A16C A51G: 0.475; for A16C A51C: 0.612. In the case of C15G C75G, the self-cleavage amounted to 0.192.

Regarding C15G C75A, the self-cleavage worked out at 0. As for C15U G17C, the self-cleavage worked out at 0.0978. For C15U G17A, the self-cleavage turned out to be 0.604.

With C15G U20C, the self-cleavage was 0.166. On to C15G U20G, for which the self-cleavage was determined as 0. The same measure for C15U G31A: 0.302; for C15G C85A: 0.748. As for C15U G76C, the self-cleavage worked out at 1.03.

Turning to C15U G76A, the self-cleavage worked out at 0.997.

For A16C C41U, the self-cleavage was found to be 0.806. Regarding A16C C41G, the self-cleavage amounted to 0.104. With A16C C41A, the self-cleavage amounted to 0.388. C15G C64A: the self-cleavage came to 0.538.

On to C15G C64G, for which the self-cleavage was 0.415. As to C15G C33U, the self-cleavage was 0.415. Regarding C15G C33G, the self-cleavage was 0.0489. The same measure for C15G C33A: 0.0405; for C15U C57U: 0.864. Regarding C15U C57A, the self-cleavage is 1.03. For the variant A16C G17U, the self-cleavage is 0.332. Regarding A16C G17C, the self-cleavage came out at 0.266. As to C15U C36G, the self-cleavage came to 0.128. Turning to A16C G74U, the self-cleavage was 0.415. The same measure for A16C G74A: 0.0692; for A16C G74C: 0.185; for C15G C66G: 0.475.

As for C15G C66A, the self-cleavage was determined as 0.665. The same measure for C15G C41A: 0.529; for C15G C41U: 0.277; for A16C C48G: 0.437. For the variant C15U C26G, the self-cleavage came out at 0.867. Regarding A16G A56C, the self-cleavage is 0.862.

With C15U U46A, the self-cleavage worked out at 0.692.

C15G C58U: the self-cleavage came to 0.482. As for C15G G54C, the self-cleavage was found to be 0.415.

On to A16C A42G, for which the self-cleavage is 0.229.

For A16G A42G, the self-cleavage came to 0.504. The same measure for A16G A42U: 0.396. Consider C15G G76A, for which the self-cleavage worked out at 0.665. As to A16C G25U, the self-cleavage stood at 0. A16C G25A: the self-cleavage is 0.0405.

As to C15U U69A, the self-cleavage worked out at 1.15. As for A16C C86G, the self-cleavage stood at 0.653. As for A16C C86U, the self-cleavage came to 0.739. In the case of A16C U23A, the self-cleavage worked out at 0.89. As to A16C G55C, the self-cleavage is 1.01. With A16C G55U, the self-cleavage stood at 0.425. For A16C C26G the value was 0.731; for A16C G39C, 0.0831. Consider A16C G39A, for which the self-cleavage was determined as 0.156. Consider A16C G39U, for which the self-cleavage stood at 0.244. For C15U C75G the value was 0.0665; for C15U G73U, 0.269; for A16C G67A, 0.506. Regarding C15U U47A, the self-cleavage is 1.23. In the case of A16C C64U, the self-cleavage was found to be 1.02. On to A16C C32A, for which the self-cleavage is 0.0554. For the variant C15U C84A, the self-cleavage was 0.81.

As for A16C G81A, the self-cleavage is 0.489. Regarding A16C U72G, the self-cleavage turned out to be 0.237. For C15U G35U the value was 0.252.
